Measurements: the Human Domainome abundance scans (Beltran et al. 2025)
± gives the uncertainty stated by the source.

assay: abundance fitness (aPCA) (normalised: wild type 0, dead -1); higher = more abundant; growth selection in yeast, the domain comes from the species named; conditions: Homo sapiens

Substance	abundance fitness
E3 ubiquitin-protein ligase NEDD4-like N215P, Q96PU5	-0.171 ± 0.074
E3 ubiquitin-protein ligase NEDD4-like N215Q, Q96PU5	-0.081 ± 0.091
E3 ubiquitin-protein ligase NEDD4-like N215R, Q96PU5	-0.193 ± 0.063
E3 ubiquitin-protein ligase NEDD4-like N215S, Q96PU5	-0.013 ± 0.07
E3 ubiquitin-protein ligase NEDD4-like N215T, Q96PU5	-0.118 ± 0.095
E3 ubiquitin-protein ligase NEDD4-like N215V, Q96PU5	-0.263 ± 0.071
E3 ubiquitin-protein ligase NEDD4-like N215W, Q96PU5	-0.293 ± 0.069
E3 ubiquitin-protein ligase NEDD4-like N215Y, Q96PU5	-0.173 ± 0.1
E3 ubiquitin-protein ligase NEDD4-like N216A, Q96PU5	0.016 ± 0.056
E3 ubiquitin-protein ligase NEDD4-like N216C, Q96PU5	-0.09 ± 0.098
E3 ubiquitin-protein ligase NEDD4-like N216D, Q96PU5	-0.142 ± 0.085
E3 ubiquitin-protein ligase NEDD4-like N216E, Q96PU5	-0.188 ± 0.076
E3 ubiquitin-protein ligase NEDD4-like N216F, Q96PU5	0.052 ± 0.091
E3 ubiquitin-protein ligase NEDD4-like N216G, Q96PU5	0.127 ± 0.052
E3 ubiquitin-protein ligase NEDD4-like N216I, Q96PU5	0.014 ± 0.079
E3 ubiquitin-protein ligase NEDD4-like N216L, Q96PU5	-0.001 ± 0.056
E3 ubiquitin-protein ligase NEDD4-like N216M, Q96PU5	0.18 ± 0.094
E3 ubiquitin-protein ligase NEDD4-like N216P, Q96PU5	-0.147 ± 0.089
E3 ubiquitin-protein ligase NEDD4-like N216Q, Q96PU5	-0.343 ± 0.1
E3 ubiquitin-protein ligase NEDD4-like N216R, Q96PU5	-0.239 ± 0.065
E3 ubiquitin-protein ligase NEDD4-like N216S, Q96PU5	0.065 ± 0.058
E3 ubiquitin-protein ligase NEDD4-like N216T, Q96PU5	0.127 ± 0.086
E3 ubiquitin-protein ligase NEDD4-like N216V, Q96PU5	-0.151 ± 0.056
E3 ubiquitin-protein ligase NEDD4-like N216W, Q96PU5	0.029 ± 0.062

Substance	abundance fitness
E3 ubiquitin-protein ligase NEDD4-like P191A, Q96PU5	-0.044 ± 0.07
E3 ubiquitin-protein ligase NEDD4-like P191C, Q96PU5	-0.155 ± 0.087
E3 ubiquitin-protein ligase NEDD4-like P191D, Q96PU5	-0.086 ± 0.11
E3 ubiquitin-protein ligase NEDD4-like P191E, Q96PU5	-0.086 ± 0.07
E3 ubiquitin-protein ligase NEDD4-like P191F, Q96PU5	-0.326 ± 0.12
E3 ubiquitin-protein ligase NEDD4-like P191G, Q96PU5	-0.118 ± 0.054
E3 ubiquitin-protein ligase NEDD4-like P191H, Q96PU5	-0.072 ± 0.073
E3 ubiquitin-protein ligase NEDD4-like P191I, Q96PU5	0.152 ± 0.12
E3 ubiquitin-protein ligase NEDD4-like P191K, Q96PU5	0.024 ± 0.076
E3 ubiquitin-protein ligase NEDD4-like P191M, Q96PU5	-0.378 ± 0.057
E3 ubiquitin-protein ligase NEDD4-like P191N, Q96PU5	0.051 ± 0.064
E3 ubiquitin-protein ligase NEDD4-like P191Q, Q96PU5	0.024 ± 0.074
E3 ubiquitin-protein ligase NEDD4-like P191R, Q96PU5	-0.167 ± 0.061
E3 ubiquitin-protein ligase NEDD4-like P191S, Q96PU5	0.037 ± 0.069
E3 ubiquitin-protein ligase NEDD4-like P191T, Q96PU5	0.125 ± 0.077
E3 ubiquitin-protein ligase NEDD4-like P191V, Q96PU5	-0.028 ± 0.058
E3 ubiquitin-protein ligase NEDD4-like P191W, Q96PU5	-0.378 ± 0.058
E3 ubiquitin-protein ligase NEDD4-like P191Y, Q96PU5	-0.432 ± 0.14
E3 ubiquitin-protein ligase NEDD4-like P192A, Q96PU5	-0.021 ± 0.078
E3 ubiquitin-protein ligase NEDD4-like P192D, Q96PU5	-0.173 ± 0.063
E3 ubiquitin-protein ligase NEDD4-like P192E, Q96PU5	-0.369 ± 0.079
E3 ubiquitin-protein ligase NEDD4-like P192F, Q96PU5	-0.296 ± 0.075
E3 ubiquitin-protein ligase NEDD4-like P192G, Q96PU5	-0.064 ± 0.06
E3 ubiquitin-protein ligase NEDD4-like P192H, Q96PU5	-0.1 ± 0.071

Substance	abundance fitness
E3 ubiquitin-protein ligase NEDD4-like P192I, Q96PU5	-0.269 ± 0.1
E3 ubiquitin-protein ligase NEDD4-like P192K, Q96PU5	-0.086 ± 0.095
E3 ubiquitin-protein ligase NEDD4-like P192L, Q96PU5	-0.173 ± 0.072
E3 ubiquitin-protein ligase NEDD4-like P192M, Q96PU5	0.094 ± 0.082
E3 ubiquitin-protein ligase NEDD4-like P192N, Q96PU5	-0.014 ± 0.059
E3 ubiquitin-protein ligase NEDD4-like P192Q, Q96PU5	0.02 ± 0.076
E3 ubiquitin-protein ligase NEDD4-like P192R, Q96PU5	0.012 ± 0.055
E3 ubiquitin-protein ligase NEDD4-like P192S, Q96PU5	-0.201 ± 0.082
E3 ubiquitin-protein ligase NEDD4-like P192W, Q96PU5	-0.484 ± 0.072
E3 ubiquitin-protein ligase NEDD4-like P192Y, Q96PU5	-0.31 ± 0.068
E3 ubiquitin-protein ligase NEDD4-like P193A, Q96PU5	-0.12 ± 0.068
E3 ubiquitin-protein ligase NEDD4-like P193C, Q96PU5	0.042 ± 0.095
E3 ubiquitin-protein ligase NEDD4-like P193D, Q96PU5	-0.131 ± 0.076
E3 ubiquitin-protein ligase NEDD4-like P193E, Q96PU5	-0.07 ± 0.087
E3 ubiquitin-protein ligase NEDD4-like P193F, Q96PU5	-0.339 ± 0.11
E3 ubiquitin-protein ligase NEDD4-like P193G, Q96PU5	-0.086 ± 0.058
E3 ubiquitin-protein ligase NEDD4-like P193H, Q96PU5	-0.058 ± 0.11
E3 ubiquitin-protein ligase NEDD4-like P193I, Q96PU5	-0.079 ± 0.052
E3 ubiquitin-protein ligase NEDD4-like P193K, Q96PU5	-0.033 ± 0.069
E3 ubiquitin-protein ligase NEDD4-like P193L, Q96PU5	-0.103 ± 0.055
E3 ubiquitin-protein ligase NEDD4-like P193N, Q96PU5	-0.25 ± 0.11
E3 ubiquitin-protein ligase NEDD4-like P193Q, Q96PU5	-0.21 ± 0.098
E3 ubiquitin-protein ligase NEDD4-like P193R, Q96PU5	0.025 ± 0.055
E3 ubiquitin-protein ligase NEDD4-like P193S, Q96PU5	-0.042 ± 0.063

Substance	abundance fitness
E3 ubiquitin-protein ligase NEDD4-like P193T, Q96PU5	-0.177 ± 0.075
E3 ubiquitin-protein ligase NEDD4-like P193V, Q96PU5	-0.003 ± 0.054
E3 ubiquitin-protein ligase NEDD4-like P193W, Q96PU5	-0.359 ± 0.067
E3 ubiquitin-protein ligase NEDD4-like P193Y, Q96PU5	-0.057 ± 0.062
E3 ubiquitin-protein ligase NEDD4-like P194A, Q96PU5	-0.057 ± 0.066
E3 ubiquitin-protein ligase NEDD4-like P194C, Q96PU5	-0.147 ± 0.076
E3 ubiquitin-protein ligase NEDD4-like P194D, Q96PU5	-0.008 ± 0.09
E3 ubiquitin-protein ligase NEDD4-like P194E, Q96PU5	-0.103 ± 0.072
E3 ubiquitin-protein ligase NEDD4-like P194F, Q96PU5	-0.443 ± 0.084
E3 ubiquitin-protein ligase NEDD4-like P194G, Q96PU5	-0.05 ± 0.059
E3 ubiquitin-protein ligase NEDD4-like P194H, Q96PU5	-0.094 ± 0.073
E3 ubiquitin-protein ligase NEDD4-like P194I, Q96PU5	-0.294 ± 0.1
E3 ubiquitin-protein ligase NEDD4-like P194K, Q96PU5	0.071 ± 0.063
E3 ubiquitin-protein ligase NEDD4-like P194L, Q96PU5	-0.094 ± 0.054
E3 ubiquitin-protein ligase NEDD4-like P194M, Q96PU5	0.013 ± 0.072
E3 ubiquitin-protein ligase NEDD4-like P194N, Q96PU5	-0.304 ± 0.11
E3 ubiquitin-protein ligase NEDD4-like P194Q, Q96PU5	0.061 ± 0.079
E3 ubiquitin-protein ligase NEDD4-like P194R, Q96PU5	0.048 ± 0.065
E3 ubiquitin-protein ligase NEDD4-like P194S, Q96PU5	-0.06 ± 0.065
E3 ubiquitin-protein ligase NEDD4-like P194T, Q96PU5	-0.107 ± 0.07
E3 ubiquitin-protein ligase NEDD4-like P194V, Q96PU5	-0.002 ± 0.058
E3 ubiquitin-protein ligase NEDD4-like P194W, Q96PU5	-0.327 ± 0.076
E3 ubiquitin-protein ligase NEDD4-like P194Y, Q96PU5	-0.279 ± 0.093
